Laboratory results taken from patent US20240254227A1 (Alector, published 2024).

T1: recombinant murine CD300LB overexpressed on BaF/3 cells (mouse, UniProt Q3U497 18-209)
T1 construct: Cells carry pMXs-Myc-tagged muCD300LB together with FLAG-tagged DAP12; also called muCD300LB; BaF/3 overexpressing muCD300LB
T1 sequence: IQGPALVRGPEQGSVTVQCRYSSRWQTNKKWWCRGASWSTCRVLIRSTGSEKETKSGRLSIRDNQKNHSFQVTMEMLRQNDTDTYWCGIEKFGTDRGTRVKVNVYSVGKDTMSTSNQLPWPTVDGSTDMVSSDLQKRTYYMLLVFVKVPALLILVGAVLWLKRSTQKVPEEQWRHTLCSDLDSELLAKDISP

T2: murine CD300LB stably expressed on Jurkat cells (mouse, UniProt Q3U497 18-209)
T2 construct: also called muCD300LB; mouse CD300LB
T2 sequence: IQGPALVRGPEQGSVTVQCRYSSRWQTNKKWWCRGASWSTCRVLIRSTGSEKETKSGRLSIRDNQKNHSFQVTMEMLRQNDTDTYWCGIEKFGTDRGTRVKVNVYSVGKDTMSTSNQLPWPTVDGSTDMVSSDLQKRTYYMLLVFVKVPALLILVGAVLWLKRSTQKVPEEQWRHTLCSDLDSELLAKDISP

T3: murine CD300LB on wild type mouse bone marrow macrophages (mouse, UniProt Q3U497 18-209)
T3 construct: Endogenous receptor on primary cells; also called mCD300LB; Wt BMM
T3 sequence: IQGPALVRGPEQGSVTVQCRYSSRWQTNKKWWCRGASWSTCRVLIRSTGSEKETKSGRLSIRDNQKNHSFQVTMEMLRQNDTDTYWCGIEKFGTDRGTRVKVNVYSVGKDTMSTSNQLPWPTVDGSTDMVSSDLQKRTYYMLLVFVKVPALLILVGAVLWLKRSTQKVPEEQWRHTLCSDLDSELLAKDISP

T4: huCD300F constitutively expressed on 293 Freestyle (Freestyle HEK) cells (human, UniProt Q8TDQ1 20-290)
T4 construct: also called huCD300LF; Human CD300F
T4 sequence: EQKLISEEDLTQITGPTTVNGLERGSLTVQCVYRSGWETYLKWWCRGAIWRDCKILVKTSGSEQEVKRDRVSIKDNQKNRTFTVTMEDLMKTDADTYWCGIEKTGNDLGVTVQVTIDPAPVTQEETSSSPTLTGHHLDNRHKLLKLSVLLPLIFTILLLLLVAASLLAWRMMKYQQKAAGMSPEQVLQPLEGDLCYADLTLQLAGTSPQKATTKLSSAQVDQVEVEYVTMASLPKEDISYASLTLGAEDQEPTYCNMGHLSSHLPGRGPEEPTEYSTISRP


Assays:
[1] = molecular target: T1, recombinant murine CD300LB …; assay: flow cytometry, BaF/3 cells overexpressing muCD300LB
Description: Purified anti-CD300LB antibodies of the present disclosure were evaluated for their binding affinity to either Jurkat cells overexpressing recombinant huCD300LB or BaF/3 cells overexpressing recombinant muCD300LB. Binding of anti-CD300LB antibodies to the cells was determined as follows. Cells were harvested, washed, and labeled with propidium iodide for viability discrimination. After washing the cells with PBS, 1×10⁵ cells were aliquoted per well in 96-well U-bottom plates and incubated with 100 μL of purified anti-CD300LB antibody at various concentrations in FACS buffer (PBS+2% FBS). After this primary incubation, the supernatant was removed via centrifugation, the cells washed twice with 150 μL of ice-cold FACS buffer, and then incubated with the appropriate secondary antibody on ice for 30 minutes. Following the secondary antibody incubation, the cells were again washed twice with ice-cold FACS buffer and resuspended in a final volume of 200 L FACS buffer. Flow cytometry analysis was then performed using the FACSCanto system (BD Biosciences).

[2] = molecular target: T2, murine CD300LB stably expressed on …; assay: flow cytometry, stable Jurkat cells, 10 ug/mL, isotype subtracted
Description: Purified anti-CD300LB antibodies of the present disclosure were analyzed for cross-reactivity to other murine CD300 family members stably expressed in Jurkat cells (generation of which is described above). Cells were counted and labeled with 200 nM CFSE, 500 nM VioBlue, or a combination of the two to discriminate between muCD300LB, Parental cells, CD300F, and the other CD300 family members. Cells were washed thoroughly with PBS containing 2% fetal bovine serum then resuspended at a total of 240,000 cells per well. Purified antibodies at 10 μg/mL were added and incubated for one hour before the cells were washed twice again and stained with an APC-labeled anti-mouse secondary. Cells were then analyzed using a BD FACSCanto II. Antibodies were analyzed for specific binding to muCD300LB by FlowJo software by gating on live cells, then the APC gMFI calculated for each labeled population by subtracting the gMFI of the isotype control. The gMFI results of the analysis are presented below in Table 4.

[3] = molecular target: T3, murine CD300LB on wild type mouse bone …; assay: flow cytometry, wild type mouse bone marrow macrophages, 10 ug/mL, isotype subtracted
Description: To further examine the specificity of the anti-CD300LB antibodies to muCD300LB, bone marrow macrophages (BMM) from wild type (WT) and CD300LB knockout mice (KO) were analyzed for antibody binding by flow cytometry. Bone marrow from these mice was harvested and plated into three 20 cm PETRI dishes in complete media containing 50 ng/mL murine M-CSF (Peprotech). Media was changed every three days until day 6, when cells were harvested. Cells were detached with PBS 3 mM EDTA, washed and counted and plated at 100,000 cells/well in a 96 well plate. Cells were incubated with murine Fc block (Clone 2.4G2, BD) then with 10 μg/mL anti-CD300LB antibodies for 30 minutes on ice. […] Cells were washed twice more with 150 μL FACS buffer then resuspended to 100 μL in FACS buffer analyzed using a BD Canto II flow cytometer to calculate the geometric MFI minus the gMFI of the isotype control. Dead cells were stained with live/dead staining kit (Invitrogen).

[4] = molecular target: T5, huCD300LB-DAP12 fusion constitutively expressed on 293 Freestyle (Freestyle HEK) cells (human); assay: flow cytometry, stable Freestyle HEK cells
T5 construct: also called Human CD300LB-DAP12 chimera
Description: (§1) Other members of the human CD300 family share sequence homology with human CD300LB. Thus, counter screens against binding of the anti-CD300LB antibodies to huCD300A, huCD300C, huCD300LD, huCD300E, huCD300LF, and huCD300G by stable overexpression in Freestyle HEK cells (generation of which is described above) were performed as follows. Cells were counted and labeled with 200 nM CFSE, 500 nM VioBlue, or a combination of the two to discriminate between CD300LB, Parental cells, and the other CD300 family members. Cells were washed thoroughly with PBS containing 2% fetal bovine serum then resuspended at a total of 240,000 cells per well. Hybridoma supernatants (100 L) or purified antibodies at various concentrations were added and incubated for one hour before the cells were washed twice again and stained with an APC-labeled anti-human or anti-mouse secondary antibody. Cells were then analyzed using a BD FACSCanto II. Anti-CD300LB antibodies were analyzed for specific binding to human CD300LB by FlowJo software by gating on live cells, then the APC geometric mean fluorescence intensity (gMFI) calculated for each labeled population. The results are shown in […]
(§2) Freestyle HEK cells were transfected with huCD300A, huCD300C, huCD300D, huCD300E, and huCD300G separately. Then, five stable cell lines from these transfections were pooled; the combined cells are herein known as CD300A/C/D/E/G. Freestyle HEK cells were also transfected with huCD300LB and huCD300F. All transfected cells were then tested for binding of anti-CD300LB antibodies of the present disclosure.

[5] = molecular target: T4, huCD300F constitutively expressed on …; assay: flow cytometry, stable Freestyle HEK cells
Description: as §1, §2

[6] = molecular target: T1, recombinant murine CD300LB …; assay: cell-based or functional assay

Row | gMFI [1] [gMFI] | gMFI [2] [gMFI] | gMFI [3] [gMFI] | gMFI [4] [gMFI] | binding result [5] | gMFI [5] [gMFI] | Luminescence in BaF/3 [6] | Binder
1 | 6260 | 1610 | 192 |  |  |  |  | anti-CD300LB antibody CD-10 (antibody, V domains shown) VH: QVQLQQSGPELVRPGVSVKISCKGSGYTFTDYAMHWVKQSHVRSREWIGVIGTYNGHTNYNQKFKGKATMTVDKSSSTAYLELARLTSEDSAIYYCARSGSYYYSMDYWGQGTSVTVSS VL: QIVLTQSPAIMSASPGEKVTMTCSASSSVNYMHWYQQKSGTSPKRWIYDTSKLSSGVPARFSGSGSGTSYSLTISTMEAEDAATYYCQQWSSNPPMTFGGGTKLEIK
2 | 19400 | 9550 |  |  |  |  | 19700 | anti-CD300LB antibody CD-14 (antibody, V domains shown) VH: QIQLVQSGPELKKPGETVKISCKASGYTFTDYSLHWVKQTPEKNLKWMAWINTETGAPTYADDFKGRFAFSLETSSNTAYLLINNLKNEDTATYFCALTMVNYWGQGTTLTVSS VL: DIVMTQSQKFMSTSVGDRVSVTCKASQNVGIRVAWHQQKPGQSPKTLIYSTSYRYSGVPDRFTGSGSGTEFILTISNVQSEDLAEYFCQQYNSYPYTFGGGTKLEIK
3 |  | 7920 | 1230 |  |  |  | 24700 | anti-CD300LB antibody CD-17 (antibody, V domains shown) VH: QIQLVQSGPELKKPGETVKISCKASGYTLTDYSMHWVKQAPGKGLKWMGWINTETGEPRYGDDFKGRFAFSLETSASSAYLQINNLKNDDTATYFCATYGRSYGMDFWGQGTSVTVSS VL: DIVLTQSPASLAVSLGQRATISCRASKSVSPSGHSYMHWYQQKPGQPPKLLIYLASNLKSGVPARFSGSGSGTDFTLNIHPVEEGDAATYYCQHNRELPPTFGGGSKLEIK
4 |  | 2520 | 1290 |  |  |  | 13000 | anti-CD300LB antibody CD-18 (antibody, V domains shown) VH: DVQLQESGPDLVKPSQSLSLTCTVTGYSITSGYSWHWIRQFPDNKLEWMGYILSRGDTNFNPSLKSRISITRSTSNNQFFLHFNSVTTEDTATYYCARDFFDYWGQGTTLTVSS VL: DVLMTQTPLSLPVSLGDQASISCRSSQSIVHSNGNTYLEWYLQKPGQSPKLLIYKVSDRFSGVPDRFSGSGSGTDFTLKISRVEAEDLGVYFCFQGSHVPYTFGGGTKLEIK
5 | 22100 | 7600 |  |  |  |  | 22400 | anti-CD300LB antibody CD-13 (antibody, V domains shown) VH: QIQLVQSGPELKKPGETVKISCKASGYTFTDYSMHWVKQAPGKGFKWMAWINTETGAPTHADDFRGRFAFSLETSASTAFLQISNLKTEDTATYFCVTFGKSYGMNYWGQGTSVTVSS VL: DIVLTQSPASLSVSLGQRATISCRASKSVGSSGSSYLHWYQQKPGQPPKLLIYLASNLESGVPARFSGSGSGTEFTLNIHPVEEEDAATYYCQHNAEVPPTFGGGTKLEIK

Continued, binder first:

Row | Binder | gMFI [1] [gMFI] | gMFI [2] [gMFI] | gMFI [3] [gMFI] | gMFI [4] [gMFI] | binding result [5] | gMFI [5] [gMFI] | Luminescence in BaF/3 [6]
6 | anti-CD300LB antibody CD-07 (antibody, V domains shown) VH: QVQLVQSGAEVKKPGASVKVSCKASGYTFTNYRMHWVRQAPGQGLEWMGWINPNSGGTIYAQKFQGRVTMTRDTSTSTVYMELSSLRSEDTAVYYCARDLDYWGQGTLVTVSS VL: DIQMTQSPSSLSASVGDRVTITCQASQDISNYLNWYQQKPGKAPKLLIYGASSLQSGVPSRFSGSGSGTDFTLTISSLQPEDFATYYCQQSYSTPWTFGPGTKVEIK |  |  |  | 31500 | no binding | 112 | 
7 | anti-CD300LB antibody CD-05 (antibody, V domains shown) VH: QVQLVQSGAEVKKPGASVKVSCKASGYTFSRYYINWVRQAPGQGLEWMGWINPNSGGTNYAQKFQGRVTMTRDTSTSTVYMELSSLRSEDTAVYYCTTDQLRFGKTGPYYGMDVWGQGTTVTVSS VL: DIQMTQSPSSLSASVGDRVTITCRASQNIGTYLNWYQQKPGKAPKLLIYAASSLQSGVPSRFSGSGSGTDFTLTISSLQPEDFATYYCQQSYSDTLTFGGGTKVEIK |  |  |  | 113000 | no binding | 2730 | 
8 | anti-CD300LB antibody CD-06 (antibody, V domains shown) VH: QVQLVQSGAEVKKPGASVKVSCKASGYTFTTYAVHWVRQAPGQGLEWMGIVNPNSGGTNYAQKFQGRVTMTRDTSTSTVYMELSSLRSEDTAVYYCARDIVPMNNFYNYYYGMDVWGQGTTVTVSS VL: DIQMTQSPSSLSASVGDRVTITCRASQSISSYLNWYQQKPGKAPKLLIYATSTLQSGVPSRFSGSGSGTDFTLTISSLQPEDFATYYCQQSYRIPYTFGQGTKVEIK |  |  |  | 80900 | no binding | 886 | 
9 | anti-CD300LB antibody CD-03 (antibody, V domains shown) VH: EVQLQQSGPELVKPGASVKISCKASGYTFTDYYINWVRQSHGKSLECIGDINPNNGGTNYNQKFKGKATLTVDRSSNTAYMEFRSLTFDDSALYYCAAEGAYWGQGTLVTVSA VL: not shown |  |  |  | 163000 | no binding | 2090 | 
10 | anti-CD300LB antibody CD-02 (antibody, V domains shown) VH: QVQLQQPGAELVRPGSSVKLSCQASGYTFTNYWMHWVRQRPIQGLEWIGNIDPSDSETHYNQKFKDRATLTVDKSSSTAYMQLSSLTSEDSAVYYCARSGVYDDEGGDYWGQGTTLTVSS VL: ENVLTQSPAIMSASPGEKVTMTCSASSSVSYIHWYQQKSSTSPKLWIYDTSKLASGVPGRFSGSGSGNSYSLTISSMETEDVATYYCFQGSGYPLTFGAGTKLELK |  |  |  | 108 |  | -93 | 
11 | anti-CD300LB antibody CD-01 (antibody, V domains shown) VH: RVQLQQSGAELVRPGASVTLSCKASGFTFTDFEMHWVKKTPVHGLEWIGAIDPESGNTAYNQKFRGKATLTADKSSSTAYMELRYLTSEDSAVYYCTPLISGADYWGQGTTLTVSS VL: DVVMTQSPLSLPVSLGDQASISCRSSQSLVHSDGNTYLYWYLQKPGQSPKLLIYKVSNRFSGVPDRFSGSGSGTDFTFKISRVGAEDLGVYFCSQSTHVPWTFGGGTKLEII |  |  |  | 45 |  | -26 | 
